From patent publication US20180177166

Assays:
Assay in all cases: cell_activity
[1] = tested on: ssMYF5 1.1 TALEN left (synthetic (Xanthomonas TALE-FokI)?); settings: TALEN pair with P4, triplex transfection with HDR oligo, pig fibroblasts, HindIII RFLP
[2] = tested on: ssMYF6 1.2 TALEN right (synthetic (Xanthomonas TALE-FokI)?); settings: TALEN pair with P5, pig fibroblasts; site printed on top strand
[3] = tested on: ssMYF6 1.2 TALEN left (synthetic (Xanthomonas TALE-FokI)?); settings: TALEN pair with P6, triplex transfection with HDR oligo, pig fibroblasts, HindIII RFLP
[4] = tested on: ssMYOD 1.2 TALEN left (synthetic (Xanthomonas TALE-FokI)?); settings: TALEN pair with P2, triplex transfection with HDR oligo, pig fibroblasts, HindIII RFLP
[5] = tested on: ssMYOD 1.2 TALEN right (synthetic (Xanthomonas TALE-FokI)?); settings: TALEN pair with P1, pig fibroblasts
[6] = tested on: ssMYF5 1.1 TALEN right (synthetic (Xanthomonas TALE-FokI)?); settings: TALEN pair with P3, pig fibroblasts; site printed on top strand

“GCCTCATGTGGGCCTG (double strand) [ssMYF5 1.1 left half-site]” gave an activity (% HDR alleles) [1] of 31.
“GACAGCAGTGGAGAGGA (double strand) [ssMYF6 1.2 right half-site]” gave an activity (% HDR alleles) [2] of 36.
With “GCCAGGACCAAATGCC (double strand) [ssMYF6 1.2 left half-site]” the activity (% HDR alleles) [3] was 36.
“CAAGAGGTGCACCAC (double strand) [ssMYOD 1.2 left half-site]” was tested, and the activity (% HDR alleles) [4] was 14.
Work on “AGGCTGCCCAAGGTGG (double strand) [ssMYOD 1.2 right half-site]” yielded an activity (% HDR alleles) [5] of 14.
In the case of “AAATCCACCACCATGG (double strand) [ssMYF5 1.1 right half-site]”, the activity (% HDR alleles) [6] is reported as 31.
